# Experimental data from paper PMC3093366, “A Component of the Xanthomonadaceae Type IV Secretion System Combines a VirB7 Motif with a N0 Domain Found in Outer Membrane Transport Proteins” (PLoS Pathogens, 2011).
# B1: VirB7_(XAC2622_38–52) (peptide)
# peptide: NHFDEAPTEIPLYTS
# notes: also called unlabeled peptide encompassing residues 38–52 from the N-terminal region; source: synthetic peptide, bought: EZBiolab
# B2: VirB7_(XAC2622_24–139_His) (domain or fragment)
# chain: TKPAPDFGGRWKHVNHFDEAPTEIPLYTSYTYQATPMDGTLKTMLERWAADSNMQLSYNLPSDYTLIGPVSAISTTSVQQAATELSAVYAAQGVSVSVSANKLLVQPVPVSSGAKL
# notes: Form with the pET28a N-terminal His-tag not removed; used in the fluorescence titration; not shown: His-tag, N-terminal, kept
# Key:
# [1] = molecular target: VirB7_(XAC2622_24–139) (Xanthomonas citri subsp. citri strain 306); test: NMR 15N relaxation (rotational correlation time); 15N T1 and T2 of 15N-VirB7_(XAC2622_24–139) at 800 µM, 40°C, 600 MHz
# [2] = molecular target: T1, VirB7_(XAC2622_51–134) (Xanthomonas citri subsp. citri strain …, UniProt A0AAI7ZGD2 51-134, 15N isotope labelled in the NMR titration); test: NMR titration; 15N-labeled VirB7_(XAC2622_51–134) (200 µM) titrated with unlabeled VirB7_(XAC2622_38–52) peptide (0 to 740 µM); 15N-HSQC; conditions: both partners purified
# T1 construct: also called VirB7_(XAC2622) globular domain; N0 domain; source: E. coli BL21(DE3)RP or BL21(DE3)Star, purified (Q-sepharose, Superdex 75)
# T1 sequence: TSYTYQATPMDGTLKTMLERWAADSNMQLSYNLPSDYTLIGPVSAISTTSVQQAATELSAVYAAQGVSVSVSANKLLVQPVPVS
# [3] = molecular target: T2, VirB9_(XAC2620_34–255) (Xanthomonas citri subsp. citri strain …, UniProt A0AAI8ESY0 34-255); test: other fluorescence titration; intrinsic fluorescence; 0.1 µM aliquots of VirB7_(XAC2622_24–139_His) added to 1 µM VirB9_(XAC2620_34–255) up to 2.2 µM; 5 mM sodium acetate pH 5.0, 25°C, excitation 280 nm, emission 334–342 nm; conditions: both partners purified
# T2 construct: also called full length VirB9; full-length VirB9_(XAC2620) minus the first 33 residues
# T2 sequence: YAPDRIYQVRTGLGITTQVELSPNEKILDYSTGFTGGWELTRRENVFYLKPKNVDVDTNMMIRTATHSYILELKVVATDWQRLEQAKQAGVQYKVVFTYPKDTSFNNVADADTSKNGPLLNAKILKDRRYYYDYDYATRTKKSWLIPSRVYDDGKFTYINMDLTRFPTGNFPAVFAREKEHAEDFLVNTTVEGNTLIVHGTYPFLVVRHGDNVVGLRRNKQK
molecule,measurement,setting,value
VirB7_(XAC2622_24–139) (from UniProt A0AAI7ZGD2 24-139) (domain or fragment),stoichiometry N,[1],2
B1,binding result,[2],binds
B2,Kd,[3],~40 nM
same,stoichiometry N,[3],1 VirB7:VirB9
